{"source": "paper PMC12470938", "biological_target": "T1, Rme1 (Trichoderma reesei) (UniProt G0RR27)", "T1 sequence": "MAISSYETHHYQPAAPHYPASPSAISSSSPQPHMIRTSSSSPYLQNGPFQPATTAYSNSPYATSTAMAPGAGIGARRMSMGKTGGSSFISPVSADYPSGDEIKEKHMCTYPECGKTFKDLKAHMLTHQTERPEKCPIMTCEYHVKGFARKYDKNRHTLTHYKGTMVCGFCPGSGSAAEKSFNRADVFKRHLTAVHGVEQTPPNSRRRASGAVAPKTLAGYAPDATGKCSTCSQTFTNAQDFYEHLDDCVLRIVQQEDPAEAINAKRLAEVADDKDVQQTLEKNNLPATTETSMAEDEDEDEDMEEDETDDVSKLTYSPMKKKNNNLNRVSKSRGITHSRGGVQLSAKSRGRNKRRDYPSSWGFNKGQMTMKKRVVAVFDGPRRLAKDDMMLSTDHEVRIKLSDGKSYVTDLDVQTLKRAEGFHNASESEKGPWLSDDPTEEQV", "test": "EMSA", "details": "20 mM Tris-HCl pH 7.4, 50 mM KCl, 5% glycerol, 1 mM DTT, 50 µg/mL BSA, 50 µM zinc sulfate; 100 ng probe, 25 min at room temperature; 6% native PAGE at 4 °C", "data": [{"sequence": "AGCAGCAGCGGCAATAACAAATACAGTAACAAATGGGGACCAGAATGCGAATTTGAAACGACAGGAACGAACACGGAGGAGGGGGCGGGGGTTGGCACGTTGGCTAAAGAATATTTCTACCTATCCACAGATGTAGC (double strand) [Pswo probe]", "values": [{"measurement": "binding", "result": "no binding"}]}]}
